The text below walks through data of paper PMC7504102, “The Penta-EF-Hand ALG-2 Protein Interacts with the Cytosolic Domain of the SOCE Regulator SARAF and Interferes with Ubiquitination” (International Journal of Molecular Sciences, 2020).

In assay [1] the target is T1, StrepHA-SARAF_CytD-SGFP2 F228S (human, UniProt Q96BY9 195-339, F228S).
T1 construct: SARAF CytD, human, 195-339 a.a., F228S; also called F228S mutant; source: HEK293 or HEK293 ALG-2KO, transfected, in lysate; not shown: Twin-Strep, N-terminal, kept; 3xHA, N-terminal, kept; SGFP2, C-terminal, kept
T1 sequence (looked up): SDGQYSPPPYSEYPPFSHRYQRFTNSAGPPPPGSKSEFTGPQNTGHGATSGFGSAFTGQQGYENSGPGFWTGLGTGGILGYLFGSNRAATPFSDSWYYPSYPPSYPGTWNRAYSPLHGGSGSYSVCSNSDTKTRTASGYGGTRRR
Description: co-IP; co-IP/HiBiT assay: SGFP2-fused proteins immunoprecipitated with anti-GFP pAb from HEK293 or HEK293 ALG-2KO lysates (with or without co-expressed FLAG-ALG-2); HKM, 1% Nonidet P-40, 10 mM NEM, 10 μM CaCl2; co-precipitated HiBiTHA-SARAF read by lytic HiBiT assay with LgBiT, normalised by StrepTactin-AP. The settings on record: partners not purified.

The target of assay [2] is T2, StrepHA-SARAF_CytD-SGFP2 (WT) (human, UniProt Q96BY9 195-339).
T2 construct: SARAF cytosolic domain (CytD), human, 195-339 a.a; source: HEK293 or HEK293 ALG-2KO, transfected, in lysate; not shown: Twin-Strep, N-terminal, kept; 3xHA, N-terminal, kept; SGFP2, C-terminal, kept
T2 sequence (looked up): T1 sequence (looked up) with S34F
Described as above. The note with it: partners not purified.

Assay [3] has as its target T3, SGFP2-fused SARAF partial fragment (SARAF-p) (human, UniProt Q96BY9 195-339).
T3 construct: source: HEK293 ALG-2KD, transfected, immunoprecipitated with anti-GFP pAb from cleared lysate
T3 sequence (looked up): T1 sequence (looked up) with S34F
Briefly: pull-down; SGFP2-fused proteins held on protein G magnetic beads via anti-GFP pAb; incubated with Nluc-ALG-2 (300 ng/mL) in buffer HKM, 0.2% Nonidet P-40, 0.1% gelatin, 100 μM CaCl2, 2 h, 4 °C; bound luciferase activity relative to Sec31A-p (100%). The settings on record: one partner purified.

Positions count from the first letter of the chain named. Names and notes keep the numbering of the source.

B1: full-length HiBiTHA-SARAF F228S (natural protein, human, UniProt Q96BY9 31-339, looked up)
chain: WNDPDRMLLRDVKALTLHYDRYTTSRRLDPIPQLKCVGGTAGCDSYTPKVIQCQNKGWDGYDVQWECKTDLDIAYKFGKTVVSCEGYESSEDQYVLRGSCGLEYNLDYTELGLQKLKESGKQHGFASFSDYYYKWSSADSCNMSGLITIVVLLGIAFVVYKLFLSDGQYSPPPYSEYPPFSHRYQRFTNSAGPPPPGSKSEFTGPQNTGHGATSGFGSAFTGQQGYENSGPGFWTGLGTGGILGYLFGSNRAATPFSDSWYYPSYPPSYPGTWNRAYSPLHGGSGSYSVCSNSDTKTRTASGYGGTRRR
notes: signal peptide in the construct; SARAF, human, full length, HiBiTHA inserted after the signal peptide; F228S; source: HEK293, transfected, in lysate; not shown: HiBiT, internal (after residue 30), kept
As to B1, the “relative interaction activity (WT expressed as 100%)” value in assay [1] is ~15 % of WT.

B2: full-length HiBiTHA-SARAF (WT) (natural protein, human, UniProt Q96BY9 31-339, looked up)
chain: B1 chain with S198F
notes: signal peptide in the construct; SARAF, human, full length; HiBiT and 3xHA (HiBiTHA) inserted between the signal peptide and the N-terminus of mature SARAF (31-339 a.a.); construction is in the Supplementary Information; source: HEK293 or HEK293 ALG-2KO, transfected, in lysate; not shown: HiBiT, internal (after residue 30), kept
Regarding B2, in assay [2], the “fold enhancement, Ca2+ over 5 mM EGTA, HEK293 ALG-2KO cells” value amounted to 1.3 fold and the “fold enhancement, Ca2+ over 5 mM EGTA, parental HEK293 cells” value is 3.7 fold.

B3: nanoluciferase (NanoLuc, Nluc)-fused ALG-2 (natural protein, UniProt O75340 1-191, looked up)
chain: MAAYSYRPGPGAGPGPAAGAALPDQSFLWNVFQRVDKDRSGVISDTELQQALSNGTWTPFNPVTVRSIISMFDRENKAGVNFSEFTGVWKYITDWQNVFRTYDRDNSGMIDKNELKQALSGFGYRLSDQFHDILIRKFDRQGRGQIAFDDFIQGCIVLQRLTDIFRRYDTDQDGWIQVSYEQYLSMVFSIV
notes: synthetic gene for bacterial expression in pET24d; The whole Nluc-ALG-2 fusion is deposited as LC381846; also called Nluc-ALG-2; NlucALG-2
As to B3, the “binding activity relative to Sec31A-p (100%)” value in assay [3] was determined as 71.5%.
